For 1 substance, stoichiometry N results are on record in publication PMC3447402.

What is called stoichiometry N is a count of units in the complex or per binding partner.

The target of this assay is acyl-carrier-protein synthase (AcpS) from Staphylococcus aureus (Staphylococcus aureus). The experiment in a line: crystal structure.

On to “acyl-carrier-protein synthase (AcpS) from Staphylococcus aureus (enzyme)”, for which the stoichiometry N stood at 3.
